From patent US10568344B2, “Methods of improving animal performance” (Novozymes A/S, priority 2015, dated 2020)
Read-outs that look alike come from different tables or passages of the source. Marks after values point to notes of the source that are not given here.

Key:
[1] = tested on: Exiguobacterium undae (DSM14481); test: Lysozyme activity turbidity assay (optical density drop); format: biochemical; details: pH 5
[2] = tested on: Clostridium perfringens DSM756; format: cell-based; details: for Diameter of zone of incomplete inhibition of growth visible after MTT coloring: 100 μg/ml; for Diameter of clearing zone: lysozymes 100 μg/ml, bacitracin 50 μg/ml
[3] = In vivo broiler trial 2, growth performance; design: species or system male broiler chickens
Procedure: No additional enzymes (e.g. phytase) were added to the feed. The experimental diets (Starter and Grower) were based on soybean meal, wheat and rye (12%) as main ingredients (Table 6). The diets were formulated to contain 222 g crude protein and 12.5 MJ/kg MEN for the starter period and 204 g crude protein and 12.7 MJ/kg MEN for the grower period.

[4] = In vivo broiler trial 4, FCR and EPEF; design: species or system male broiler type chickens (Cobb 500); details: 50 mg/kg in Grower feed (Days 8-24)
Procedure: Diet composition was designed to meet or exceed the requirements except for metabolisable energy, phosphorus and calcium (tables 15 and 16). […] During the Grower period, the lysozyme (SEQ ID NO: 1) was applied at […] as a liquid formulation (table 14). There were no other enzymes or any coccidiostats supplemented in the diets. The diets were prepared at a […] specialised in experimental diets and the mash feed was offered ad libitum to the birds. At the day of hatching, male day-old broiler type chickens (male byproducts of female parental line of Cobb 500) were obtained from Cobb Germany […] GmbH, […] (Brö[…] birds were randomly assigned in groups of 22 chickens to the experimental pens ( 3 sq·m.) equipped with a bell drinker and a round feeder. After 7 days of equal rearing, number of birds per pen was reduced to 20, selecting against obviously light birds. Recorded body weights (BW) were immediately statistically evaluated. In order to ensure similar average BW between treatments and variation within treatments statistical evaluation of BW-placement of chicks was coordinated in such a way as to minimize within-pen variation and between-treatment differences of average BW. Feed and water were freely available, feed consumption was recorded. Initial bedding consisted of wood shavings. Caked excreta patches around the drinkers were removed several times during the experimental period and more bedding material was added when required. Light and temperature regimes were managed according to the breeder's recommendations. Birds were weighed (groupwise) at placement and at the end of each fattening period. At the final weighing, birds were weighed individually. Feed offered was recorded continuously upon refilling the feeders; the feed remaining in the feeders was recorded at the end of each fattening period. […] Daily BW gain per bird (BW gain) and feed conversion ratio (FCR) were calculated as follows: BWgain: difference between BW per bird at the end and at the beginning of the study divided by the number of days FCR: total feed consumption of a pen divided by total BW gain of that pen (total BW gain=total BW at the end+weight of removals and losses-total BW at the beginning) The European Production Efficacy Factor (EEF) was calculated as follows: EEF=[(liveability,%×BWgain,kg)/(Study duration in days×FCR)]×100. Statistical Analysis Data of performance was analysed using a bi-factorial ANOVA (procedure PROC GLM) with the fixed effects of lysozyme supplementation as well as their interaction. Differences were investigated between the various levels of each main factor (Tukey test), accounting for multiple comparisons where appropriate.

Clostridiales = test: Microbiota analysis of broiler trial 4 (16S rRNA), Clostridiales; format: in vivo, chicken; design: key to Observed shift compared to the control group, Significance: Significant change (+++), padj < 0.05; Numerical change (+); details: 50 ppm
Bacteroidales = test: Microbiota analysis of broiler trial 4 (16S rRNA), Bacteroidales; format: in vivo, chicken; design: key to Observed shift compared to the control group, Significance: Significant change (+++), padj < 0.05; Numerical change (+); details: 50 ppm
[5] = Grower (d 22-36), 6.25 mg/kg feed
[6] = Grower (d 22-36), 12.5 mg/kg feed
[7] = Grower (d 22-36), 25 mg/kg feed
[8] = Starter (d 1-22), 6.25 mg/kg feed
[9] = Starter (d 1-22), 12.5 mg/kg feed
[10] = Starter (d 1-22), 25 mg/kg feed
[11] = Whole period (d 1-36), 6.25 mg/kg feed
[12] = Whole period (d 1-36), 12.5 mg/kg feed
[13] = Whole period (d 1-36), 25 mg/kg feed

B1: SEQ ID NO: 1: mature amino acid sequence of a wild type GH25 lysozyme from Acremonium alcalophilum with N-terminal SPIRR (protein)
chain: SPIRRRIPGFDISGWQPTTDFARAYANGDRFVYIKATEGTTFKSSAFSRQYTGATQNGFIRGAYHFAQPAASSGAAQARYFASNGGGWSKDGITLPGALDIEYNPNGATCYGLSQSAMVNWIEDFVTTYHGITSRWPVIYTTTDWWTQCTGNSNRFANRCPLWIARYASSVGTLPNGWGFYTFWQYNDKYPQGGDSNWFNGDASRLRALANGD
modifications: Wild type sequence with N-terminal SPIRR
For B1, the “Lysozyme activity as measured by Optical Density Drop” value [1] was “+ (pH 5)”, the Inhibition zone ([2]; 1/10 MHB, pH7, both experiments) was 11-13 mm and the “Diameter of zone of incomplete inhibition of growth visible after MTT coloring” value ([2]; Experiment 1, 1/2 MHB pH 6) was 20 mm. The “Diameter of clearing zone” value ([2]; Experiment 1, 1/2 MHB pH 6) was 6 mm, the “Diameter of clearing zone” value ([2]; Experiment 1, 1/10 MHB pH 7) was 13 mm and the “Diameter of zone of incomplete inhibition of growth visible after MTT coloring” value ([2]; Experiment 2, 1/2 MHB pH 6) was 19 mm. The “Diameter of clearing zone” value ([2]; Experiment 2, 1/2 MHB pH 6) was 4 mm, the “Diameter of clearing zone” value ([2]; Experiment 2, 1/10 MHB pH 7) was 11 mm and the “Larger incomplete clearing zone” value ([2]; ½ MHB, pH 6, after coloring with MTT) was 19-20 mm. The Clearing zone diameter ([2]; ½ MHB, pH 6, both experiments) was 4-6 mm, the FCR [3, 5] was 1.753^a and the “FCR, Relative to C (%)” value [3, 5] was 101.9%. The Feed intake [3, 5] was 2705 g/b, the “Feed intake, Relative to C (%)” value [3, 5] was 99.1% and the Weight gain [3, 5] was 1545 g/b. The “Weight gain, Relative to C (%)” value [3, 5] was 97.4%, the FCR [3, 6] was 1.692^a and the “FCR, Relative to C (%)” value [3, 6] was 98.3%. For the same molecule, the Feed intake [3, 6] was 2671 g/b, the “Feed intake, Relative to C (%)” value [3, 6] was 97.8% and the Weight gain [3, 6] was 1581 g/b. The “Weight gain, Relative to C (%)” value [3, 6] was 99.7%, the FCR [3, 7] was 1.686^a and the “FCR, Relative to C (%)” value [3, 7] was 98%. For the same molecule, the Feed intake [3, 7] was 2753 g/b, the “Feed intake, Relative to C (%)” value [3, 7] was 100.8% and the Weight gain [3, 7] was 1633 g/b. The “Weight gain, Relative to C (%)” value [3, 7] was 102.9%, the FCR [3, 8] was 1.403^ab and the “FCR, Relative to C (%)” value [3, 8] was 101.8%. The Feed intake [3, 8] was 1551^ab g/b, the “Feed intake, Relative to C (%)” value [3, 8] was 105.4% and the Weight gain [3, 8] was 1106 g/b. The “Weight gain, Relative to C (%)” value [3, 8] was 103.6%, the FCR [3, 9] was 1.339^b and the “FCR, Relative to C (%)” value [3, 9] was 97.1%. For the same molecule, the Feed intake [3, 9] was 1403^d g/b, the “Feed intake, Relative to C (%)” value [3, 9] was 95.4% and the Weight gain [3, 9] was 1049 g/b. The “Weight gain, Relative to C (%)” value [3, 9] was 98.3%, the FCR [3, 10] was 1.332^b and the “FCR, Relative to C (%)” value [3, 10] was 96.6%. The Feed intake [3, 10] was 1434^cd g/b, the “Feed intake, Relative to C (%)” value [3, 10] was 97.4% and the Weight gain [3, 10] was 1076 g/b. The “Weight gain, Relative to C (%)” value [3, 10] was 100.9%, the FCR [3, 11] was 1.604^a and the “FCR, Relative to C (%)” value [3, 11] was 101.6%. For the same molecule, the Feed intake [3, 11] was 4249 g/b, the “Feed intake, Relative to C (%)” value [3, 11] was 101.4% and the Weight gain [3, 11] was 2651 g/b. The “Weight gain, Relative to C (%)” value [3, 11] was 99.9%, the FCR [3, 12] was 1.548^bc and the “FCR, Relative to C (%)” value [3, 12] was 98.1%. The Feed intake [3, 12] was 4069 g/b, the “Feed intake, Relative to C (%)” value [3, 12] was 97.1% and the Weight gain [3, 12] was 2630 g/b. The “Weight gain, Relative to C (%)” value [3, 12] was 99.1%, the FCR [3, 13] was 1.543^c and the “FCR, Relative to C (%)” value [3, 13] was 97.8%. The Feed intake [3, 13] was 4181 g/b, the “Feed intake, Relative to C (%)” value [3, 13] was 99.8% and the Weight gain [3, 13] was 2709 g/b. For the same molecule, the “Weight gain, Relative to C (%)” value [3, 13] was 102.1%, the “Improvement of FCR compared to the control diet” value ([3]; day 1 to day 36, 12.5 mg/kg) was 1.9% and the “Improvement of FCR compared to the control diet” value ([3]; day 1 to day 36, 25 mg/kg) was 2.2%. For the same molecule, the “Improvement of weight gain compared to C” value ([3]; day 1 to day 36, 25 mg/kg) was 2.0%, the “Improvement of FCR compared to the control diet” value ([3]; grower period, 25 mg/kg) was 2.0% and the “Improvement of weight gain compared to the control diet” value ([3]; grower period, 25 mg/kg) was 2.9%. For the same molecule, the “Improvement of weight gain compared to the control diet” value ([3]; starter period, 6.25 mg/kg) was 3.6%, the “Improvement of FCR compared to the control diet” value ([3]; starter period, 12.5 mg/kg) was 2.9% and the “Improvement of FCR compared to the control diet” value ([3]; starter period, 25 mg/kg) was 3.4%. For the same molecule, the EPEF [4] was 327, the FCR [4] was 1.56 and the EPEF % improvement ([4]; vs no lysozyme) was 3.8%. It also gave an EPEF change ([4]; vs no lysozyme) of 12, an FCR % improvement ([4]; vs no lysozyme) of 1.9% and an FCR change ([4]; vs no lysozyme) of 0.03. For the same molecule, the “Observed shift compared to the control group, Significance” value (Clostridiales; Order level (Clostridiales)) was “+”, the “Clostridiales Change vs control” value (Clostridiales; order level) was 5.3792 and the “Clostridiales Ratio vs control” value (Clostridiales; order level) was 1.1671. The “Clostridiales abundance, Lysozyme treatment” value (Clostridiales; order level, ceca content) was 37.5638, the “Observed shift compared to the control group, Significance” value (Bacteroidales; Order level (Bacteroidales)) was “+” and the “Bacteroidales Change vs control” value (Bacteroidales; order level) was −15.8551. The “Bacteroidales Ratio vs control” value (Bacteroidales; order level) was 0.7538 and the “Bacteroidales abundance, Lysozyme treatment” value (Bacteroidales; order level, ceca content) was 48.5437.
